Experimental findings from a protein production outcome set (Wang et al. 2014) are described below.

The nature of the data set: label from the status in PepcDB records.
As to “MWPQDPSRKEVLRFAVSCRILTLMLQALFNAIIPDHHAEAFSPPRLAPSGFVDQLVEGLLGGLSHWDAEHFLFIAEHGYLYEHNFAFFPGFPLALLVGTELLRPLRGLLSLRSCLLISVASLNFLFFMLAAVALHDLGCLVLHCPHQSFYAALLFCLSPANVFLAAGYSEALFALLTFSAMGQLERGRVWTSVLLFAFATGVRSNGLVSVGFLMHSQCQGFFSSLTMLNPLRQLFKLMASLFLSVFTLGLPFALFQYYAYTQFCLPGSARPIPEPLVQLAVDKGYRIAEGNEPPWCFWDVPLIYSYIQDVYWNVGFLKYYELKQVPNFLLAAPVAILVAWATWTYVTTHPWLCLTLGLQRSKNNKTLEKPDLGFLSPQVFVYVVHAAVLLLFGGLCMHVQVLTRFLGSSTPIMYWFPAHLLQDQEPLLRSLKTVPWKPLAEDSPPGQKVPRNPIMGLLYHWKTCSPVTRYILGYFLTYWLLGLLLHCNFLPWT”, the protein production entry is reported as “failed”.

For the sequence “MNGSLQRSHMEIVPDTSVVIDGRVSDQVKADADPDTDVDGMGFAGATVVVPEAVVGELEAQANDGRETGWEGLEELQTLVDLAEEGTIDVEYVGRRPDAIEKREAGEGQIDALIRDIAGDRDATLVTSDDVQAEVARAKGLAVEFVDPVKRTVDRLQI”, the protein production result is “failed”. Consider “MSKLEFLAFYDELTGLPNKNSLIRWLNLKVSQMDCIDTYLIFLEVRDLEKLNVTYGYDLVDELIIHISKRIKDIAGEGNKAFKIGFDRFAIICKSENISDFIERMLSQLLLPYNVNGNLIRVNFNIGAAQIENSNEAAANLMRRCDLALIKAKEEGLNEYVIFKPSIEIQTLEHHHHHH”, for which the protein production entry was “not failed”. The result for “MPGTKQVNVGSLKVGQYVMIDGVPCEIVDISVSKPGKHGGAKARVVGIGIFEKVKKEFVAPTSSKVEVPIIDRRKGQVLAIMGDMVQIMDLQTYETLELPIPEGIEGLEPGGEVEYIEAVGQYKITRVIGGK” reads “not failed”. The result for “SHIIVIGAGITGVTSAYELIKLGFQVTVIDRHLFPAMETSFANGGQLSACNAEVWNQRSTISKGIKWMSKKDAPLLLNPSFNLHKYSWLFEFLSHIKHYEQNTIETVRLALLARKRLFEIAEIENIDFNLERRGILHIYHTPSDYEIAKNVNDLLNKATLHRYQVNPDEIKTIEPALSGEYCGGYYTPDDATGDIHKFCVGLADSSKRDGVDYKFGWDVNQIELLEKGVIVSCIPSTENMTEPSSQHLRLEADGIVVCGGVGSYQLAHMLGDRVNVYPVKGYSITVHLNDEHSIENAPWVSLLDESAKIVTSRLGKDRLRVAGTAEFNGYNRDIRADRIQPLINWVNANFEISTEHVVPWSGLRPMMPNMMPVVRQGKHPRVFYNTGHGHLGWTLSAATAAIIGQEIQSKIP” reads “failed”; that for “FDFKAGEEVLARWTDCRYYPAKIEAINKEGTFTVQFYDGVIRCLKRMHIKAMPEDAKGQDWIALVKA”, “not failed”; that for “MGGSNMKLDFSVAVHSILYLDAHRDSKVASRELAQSLHLNPVMIRNILSVLHKHGYLTGTVGKNGGYQLDLALADMNLGDLYDLTIPPTISYARFITGPSKTDEQADQSPIAANISETLTDLFTVADRQYRAYYHQFTMADLQADLNHHGTFLQHEQDSES”, “not failed”. The result for “GEIIEGCRLPVLRRNQDNEDEWPLAEILSVKDISGRKLFYVHYIDFNRRLDEWVTHERLDLKKIQFPKKEAKTP” reads “not failed”. “MITTFKCVLVTKNIRMNERLMNSQSGYLRKAVNHPINWYTWSNDVFEIAKKENKPILIDVGAAWCHWCNVMDEDTYSNPEIAKIVNENFIPVKVDRDEMPDLDRLLQNAAMAITGESGWPLTIFMTPEGKVFFGGTYFPPEDRYGRIGFKRLLLEILRIWREDRNQILLSS”: the protein production entry is reported as “failed”. The result for “MNYECLIGVLSCLLVALPKGNCHSISGLNSTLNLPEIRGDQFLYFGFGSNMLIKRIHIQNPSAVRIGPALLPDYRLDFALESAGWSGSVATIVPTQGDHVWGTLWKIDLSNLPDIDSQEGVSQGIYEPRTVYVKLHGESESTPARAYLLTKQPESNLYELPKDSIPLSRQPSKTYLQCLVKGAIESSVPEDYVQRLRSIKHNGQVNSYLERKLELGGVTL” reads “failed”. Next, “MMPNRNTNMLLAYKRLPNWTANSIPETLLNPHNTKVGTWEQLTVLSGKLDVYFFDKDDHVLEKLTFDKDSQMPFIQPQVCYKIEPASNDLECHLTLYCQKGDYFNKKYGMTKTHSEVLFSAPYLKENSKILDLGSGQGRNSLYLTMLGHDVTSVDTNEQSLIHLKNIANEENLPSKINWYDINTANLQETYDFILSTVVFMFLNRPVVPDIIKDMQKHTAIGGYNLIVCAMDTKSYPCPIPFPFTFKKGELKDYYKEWYLIKYNEDLGQLHKTDANGNRLQMQFATLLAKKVK”: “failed”; “MKNGGVFVSIALLVTITLVMGVIFVNGWTDAPNAIATAVSTRVLKPNVAIWMAVVMNFLGALVMTFFNAQVAETISNIVSFDANGNASQVALAASLFSIVVWAVAAWYFGIPTSESHALIAGLTGSAMALGGLGAVNGSEWIKVLVGLVVSTVMGFGGGYLIAKLVVKAFSAVPRRKANKFFTVGQAFGAGANAFLHGAQDGQKFMGVFMLVLFYNNLVEKTGGGFVIPLWVMVLCSITMGIGTSVGGMRIIKSVGMDMVKLERYQGFTADLSTAICLFLASAFGIPVSTTHTKTTAIMGVGASKRISSVDWRIVKEMLIAWILTFPGCGLIAYVMSKLFIAIF”: “failed”; “MSLGALPTAEDIDAVVLDFDGTQTDDRVLIDSDGREFVSVHRGDGLGIAALRKSGLTMLILSTEQNPVVAARARKLKIPVLHGIDRKDLALKQWCEEQGIAPERVLYVGNDVNDLPCFALVGWPVAVASAHDVVRGAARAVTTVPGGDGAIREIASWILGPSLDSLDKEGHHHHHH”: “not failed”. Next, “MEWSLPVDLQEEILSRVPAKSLARWKSTPKQWKGPISIEFLHLLRSTLKFPLLNLHLKSKSIYVTSFTAMVFCYAPPSTKDSRFGIHVQGKPSGFLADEQNKVVVCCKWRSDSINTIYFVGENKHVQVDQRRGDLTLGQSCSFLMNYVPSFVQIQQGTLLAPRT”: “failed”; “MTQTVDIENTDNVLSRRDSNAETQQMLRQRFETQPDLMPAQLASELGIAELEVVTALPQAQRVFLPLAHMDELLQSLPEWGSLTTIVMLSGSVFEFKGDFPQGKFAHGYYNLYSKGDGLHGHLKLDGMRAIALISRPFRGSESHSINFFGPQGEVVFKVYLGRDKQRVLFPDQVRRFKALAATFAD”: “failed”; “MTIPELPKDLIEEILCYVPATYLKRLRSTCKGWNRLFKDDRRFAKKHYDKAAKQFLPLMSTNEELCAMSVNLHGTIPSLEVKDKPWLFVSDSKHCDIEISRIFHSGGLLLCFSRDGEISIIVWNPLTSETRLIRTRNRRDKGRNFVLGYYQEDKKTYYKILSFYLDSKDFEIFEFNSDSWRFIDDICPGLSLLYSDQCVSLKGNTYMFAIDDLSVSLLKYDFSTETSVPVPLPYKSRSFEAISLSVVREEKLSVLLQRDKSSKTEIWVTNVIDETTTKVMVVSWSKVLSLDLSPDLKIRYGESFLLDEEKKVIMIFNNRMEEENKSEDKLYIIGDDDNKATQVYTIHGYGPAVFNYFPSLVQIEQSSRQEEKS”: “failed”. In the case of “MEDSTATATSSSSTHYFSIFTNYPLISAVTSFTIAQFIKLFTSWYRERRWDLKQLIGSGGMPSSHSATVTALAVAIGLQEGFGGSHFAIALILASVVMYDATGVRLHAGRQAEVLNQIVYELPAEHPLAESRPLRELLGHTPPQVCRHMT”, the protein production entry is given as “failed”. Next, “MTVTAPNALNFECETGNYHTFCPISCVAWLYQKIEDSFFLVIGTKTCGYFLQNAMGVMIFAEPRYAMAELEEGDISAQLNDYEELKRLCLEIKRDRNPSVIVWIGTCTTEIIKMDLEGLAPKLEAEIGIPIVVARANGLDYAFTQGEDTVLAAMAARCPTSTAISDPEERNPIQRLLNFGKKKEEVQAQSSQYHPHPPLVLFGSLPDPVVTQLTLELKKQGIKVSGWLPAKRYTELPVIDEGYYVAGVNPFLSRTATTLIRRRKCQLITAPFPIGPDGTRTWIEQICATFGIQPQGLAEREAETWQKLSDYLELVRGKSVFFMGDNLLEISLARFLIRCGMRVLEIGIPYMDKRYQAAELALLSQTCAEMGHPLPTIVEKPDNYNQLQRIKALQPDLVITGMAHANPLEARGISTKWSVEFTFAQIHGFGNARDILELVTRPLRRNQALAGLGWQKLVAHLEHHHHHH”: “failed”; “MLTDSGGGGTSFEEDLDSVAPRSAPAGASEPPPPGGVGLGIRTVRLFGEAGPASGVGSSGGGGSGSGTGGGDAALDFKLAAAVLRTGGGGGASGSDEDEVSEVESFILDQEDLDNPVLKTTSEIFLSSTAEGADLRTVDPETQARLEALLEAAAFADPEVLRRLTSSVSCALDEAAAALTRMKAENSHNAGQVDTRSLAEACSDGDVNAVRKLLDEGRSVNEHTEEGESLLCLACSAGYYELAQVLLAMHANVEDRGNKGDITPLMAASSGGYLDIVKLLLLHDADVNSQSATGNTALTYACAGGFVDIVKVLLNEGANIEDHNENGHTPLMEAASAGHVEVARVLLDHGAGINTHSNEFKESALTLACYKGHLDMVRFLLEAGADQEHKTDEMHTALMEACMDGHVEVARLLLDSGAQVNMPADSFESPLTLAACGGHVELAALLIERGANLEEVNDEGYTPLMEAAREGHEEMVALLLAQGANINAQTEETQETALTLACCGGFSEVADFLIKAGADIELGCSTPLMEASQEGHLELVKYLLASGANVHATTATGDTALTYACENGHTDVADVLLQAGADLDKQEDMKTILEGIDPAKHQVRVAFDACKLLRKE”: “failed”; “REITLDDAALLQRFFVENPEYFHIVHGAAPQPDEARDEIDDALPAGWSYTHKWKIGYFDSEGRLLAFVSIVTDLLAQGVWHIGLFMLATPCHGSSLARQLHAELEAWAAGEGARWLRLSVVQDNARAQGFWNACGYAQVRTRDGIELGRLQHQVRIMIKPL”: “failed”. Next, “MSLNVQTVAVIGSGTMGAGIAEVAASHGHQVLLYDISAEALTRAIDGIHARLNSRVTRGKLTAETCERTLKRLIPVTDIHALAAADLVIEAASERLEVKKALFAQLAEVCPPQTLLTTNTSSISITAIAAEIKNPERVAGLHFFNPAPVMKLVEVVSGLATAAEVVEQLCELTLSWGKQPVRCHSTPGFIVNRVARPYYSEAWRALEEQVAAPEVIDAALRDGAGFPMGPLELTDLIGQDVNFAVTCSVFNAFWQERRFLPSLVQQELVIGGRLGKKSGLGVYDWRAEREAVVGLEAVSDSFSPMKVEKKSDGVTEIDDVLLIETQGETAQALAIRLARPVVVIDKMAGKVVTIAAAAVNPDSATRKAIYYLQQQGKTVLQIADYPGMLIWRTVAMIINEALDALQKGVASEQDIDTAMRLGVNYPYGPLAWGAQLGWQRILRLLENLQHHYGEERYRPCSLLRQRALLESGYESEGHHHHHH”: “not failed”; “MKNYKIILTALCFICIFSCSKTETKKSIKYKDGVYKSFANIKDDWGGTAEVEIKIEEGKIVECTFLSYEKNGNLKGPEYGKVDGVIKNMGLYKIAQASVLKAAEYGQKLIETQNIDDVDVIAGASISYKLFKDAVENALQGAMQNAKENLEHHHHHH”: “failed”.
